{"source": "paper doi:10.1101/2021.10.07.463402", "target": "SARS-CoV-2 spike glycoprotein (S), wild type (SARS-CoV-2 strain Wuhan-Hu-1)", "assay": "native gel or EMSA"}
{"substance": "SARS-CoV-2 spike glycoprotein (S), wild type (natural protein)", "values": [{"measurement": "stoichiometry N", "result": 3}]}
